How the values were obtained:
[1] = system: Microcin S peptide
[2] = system: McsS-YebF fusion peptide

Substance: Microcin immunity protein (mcsI)
- OD600 growth of E. coli Top10 after induction with 0.125% v/v L-arabinose [1]: the OD600 reading was restored significantly compared to the un-induced and control cultures
- OD600 growth of E. coli Top10 after induction with 0.125% v/v L-arabinose [2]: the OD600 reading was restored significantly compared to the un-induced and control cultures

Source: patent US20170335333
